Experiment [1] deals with T1, human PD1 (human, UniProt Q15116 25-167, limits assumed).
T1 construct: the construct is not described; also called hPD1; programmed cell death protein 1
In words: binding kinetics to hPD1, method not stated.

Experiment [2] addresses human IL-12 receptor on cells (human, UniProt P42701 24-662; Q99665 24-862). Nature of the experiment: cell-based or functional assay.

T1 sequence (Q15116 25-167 limits assumed): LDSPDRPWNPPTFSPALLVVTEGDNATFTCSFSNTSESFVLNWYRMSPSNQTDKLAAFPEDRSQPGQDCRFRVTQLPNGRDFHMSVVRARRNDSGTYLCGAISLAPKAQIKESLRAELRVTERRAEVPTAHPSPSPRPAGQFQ
Sequence of human IL-12 receptor on cells (Q99665 24-862, chain 2 of 2, other chains not shown): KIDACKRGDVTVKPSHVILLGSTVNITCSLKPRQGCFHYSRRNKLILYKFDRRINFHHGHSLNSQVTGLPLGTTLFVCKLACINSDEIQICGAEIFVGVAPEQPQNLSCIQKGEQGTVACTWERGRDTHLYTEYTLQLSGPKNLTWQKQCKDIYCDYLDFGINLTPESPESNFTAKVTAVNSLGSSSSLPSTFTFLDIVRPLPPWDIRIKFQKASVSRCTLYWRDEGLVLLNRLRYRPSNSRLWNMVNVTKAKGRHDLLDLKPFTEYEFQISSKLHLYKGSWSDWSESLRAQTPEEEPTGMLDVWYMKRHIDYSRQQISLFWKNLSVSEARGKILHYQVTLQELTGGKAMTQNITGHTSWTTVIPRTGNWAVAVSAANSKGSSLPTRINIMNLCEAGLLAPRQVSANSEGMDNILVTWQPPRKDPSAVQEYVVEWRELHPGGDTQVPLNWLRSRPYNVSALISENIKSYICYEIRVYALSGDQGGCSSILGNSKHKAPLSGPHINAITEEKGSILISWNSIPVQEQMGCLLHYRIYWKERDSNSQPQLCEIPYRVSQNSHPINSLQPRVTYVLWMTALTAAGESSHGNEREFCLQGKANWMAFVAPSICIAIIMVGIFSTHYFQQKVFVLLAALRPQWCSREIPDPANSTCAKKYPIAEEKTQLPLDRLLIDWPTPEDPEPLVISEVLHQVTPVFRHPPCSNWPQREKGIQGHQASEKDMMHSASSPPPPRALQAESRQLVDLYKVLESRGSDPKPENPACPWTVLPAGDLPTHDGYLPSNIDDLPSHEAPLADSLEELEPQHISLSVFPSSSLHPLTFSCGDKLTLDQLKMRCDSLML

B1: TPP-76868 (antibody, V domains shown)
VH: EVQLVESGGGLVQPGGSLRLSCAASGFSFGDFDMRWFRQAPGKGLEWVGLIKSRAYLEATEFAASVEGRFTISRDDAKNSAYLQMNSLRAEDTAVYYCTRDSYSSGLLDYWGQGTLVTVSS
VL: DIQMTQSPSSLSASVGDRVTITCRASQGISNYLAWFQQKPGKAPKRLIYAAQIPGSGVPSRFSGSGSGTDFTLTISSLQPEDFATYYCLQHYSYPLTFGGGTKVEIK
In the case of B1, in experiment [1], binding was characterised by a dissociation constant (Kd) of 3 nM, the off-rate (koff) came to 0.000391 s⁻¹, the kon is 135000 M⁻¹ s⁻¹ and the t1/2 is 1770 s (not printed; inferred from ln2/kd).

B2: TPP-68807 (antibody, V domains shown)
VH: EVQLVESGGGLVQPGGSLRLSCAASGFSFGDFDMRWFRQAPGKGLEWVGLIKSKAYRYATEFAASVEGRFTISRDDAKNSAYLQMNSLRAEDTAVYYCTRDSYSSGLLDYWGQGTLVTVSS
VL: DIQMTQSPSSLSASVGDRVTITCRASQGISNYLAWFQQKPGKAPKRLIYAASIPGSGVPSRFSGSGSGTDFTLTISSLQPEDFATYYCLQHKSYPLTFGGGTKVEIK
Turning to B2, in experiment [1], the dissociation constant Kd came out at 3 nM, the koff is 0.000251 s⁻¹, the kon was found to be 78500 M⁻¹ s⁻¹ and the t1/2 is 2760 s (not printed; inferred from ln2/kd).

B3: TPP-77658 (antibody, V domains shown)
VH: EVQLVESGGGLVQPGGSLRLSCAASGFSFGDFDMRWFRQAPGKGLEWVGTIKSRAYLEATEFAASVEGRFTISRDDAKNSAYLQMNSLRAEDTAVYYCTRDAYSSGLLDYWGQGTLVTVSS
VL: DIQMTQSPSSLSASVGDRVTITCRASQGISNYLAWFQQKPGKAPKRLIYAAQIPGSGVPSRFSGSGSGTDFTLTISSLQPEDFATYYCLQHYSYPLTFGGGTKVEIK
Take B3: in experiment [1], the Kd worked out at 7 nM, the koff worked out at 0.000765 s⁻¹, the kon turned out to be 109000 M⁻¹ s⁻¹ and the t1/2 is 906 s (not printed; inferred from ln2/kd).

B4: H10/TPP-76868 fusion protein (other)
heavy 1: EVQLVESGGGLVQPGGSLRLSCAASGFSFGDFDMRWFRQAPGKGLEWVGLIKSRAYLEATEFAASVEGRFTISRDDAKNSAYLQMNSLRAEDTAVYYCTRDSYSSGLLDYWGQGTLVTVSSASTKGPSVFPLAPSSKSTSGGTAALGCLVKDYFPEPVTVSWNSGALTSGVHTFPAVLQSSGLYSLSSVVTVPSSSLGTQTYICNVNHKPSNTKVDKKVEPKSCDKTHTCPPCPAPEAAGAPSVFLFPPKPKDTLMISRTPEVTCVVVDVSHEDPEVKFNWYVDGVEVHNAKTKPREEQYNSTYRVVSVLTVLHQDWLNGKEYKCKVSNKALPAPIEKTISKAKGQPREPQVYTLPPCREEMTKNQVSLSCAVKGFYPSDIAVEWESNGQPENNYKTTPPVLDSDGSFFLVSKLTVDKSRWQQGNVFSCSVMHEALHNHYTQKSLSLSPGK
heavy 2: EVQLVESGGGLVQPGGSLRLSCAASGFSFGDFDMRWFRQAPGKGLEWVGLIKSRAYLEATEFAASVEGRFTISRDDAKNSAYLQMNSLRAEDTAVYYCTRDSYSSGLLDYWGQGTLVTVSSASTKGPSVFPLAPSSKSTSGGTAALGCLVKDYFPEPVTVSWNSGALTSGVHTFPAVLQSSGLYSLSSVVTVPSSSLGTQTYICNVNHKPSNTKVDKKVEPKSCDKTHTCPPCPAPEAAGAPSVFLFPPKPKDTLMISRTPEVTCVVVDVSHEDPEVKFNWYVDGVEVHNAKTKPREEQYNSTYRVVSVLTVLHQDWLNGKEYKCKVSNKALPAPIEKTISKAKGQPREPQVCTLPPSREEMTKNQVSLWCLVKGFYPSDIAVEWESNGQPENNYKTTPPVLDSDGSFFLYSKLTVDKSRWQQGNVFSCSVMHEALHNHYTQKSLSLSPGSGGGGSGGGGSGGGGRNLPVATPDPGMFPCLHHSQNLLRAVSNMLQKARQTLEFYPCTSEEIDHEDITKDKTSTVEACLPLELTKNESCLNSRETSFITNGSCLASRKTSFMMALCLSSIYEDLKMYQVEFKTMNAKLLMDPKRQIFLDQNMLAVIDELMQALNFNSETVPQKSSLEEPDFAKTKIKLCILLHAFRIRAVTIDRVMSYLNAS
light: DIQMTQSPSSLSASVGDRVTITCRASQGISNYLAWFQQKPGKAPKRLIYAAQIPGSGVPSRFSGSGSGTDFTLTISSLQPEDFATYYCLQHYSYPLTFGGGTKVEIKRTVAAPSVFIFPPSDEQLKSGTASVVCLLNNFYPREAKVQWKVDNALQSGNSQESVTEQDSKDSTYSLSSTLTLSKADYEKHKVYACEVTHQGLSSPVTKSFNRGEC
chain: IWELKKDVYVVELDWYPDAPGEMVVLTCDTPEEDGITWTLDQSSEVLGSGKTLTIQVKEFGDAGQYTCHKGGEVLSHSLLLLHKKEDGIWSTLILKDQKEPKNKTFLRCEAKNYSGRFTCWWLTTISTDLTFSVKSSRGSSDPQGVTCGAATLSAERVRGDNKEYEYSVECQEDSACPAAEESLPIEVMVDAVHKLKYENYTSSFFIRDIIKPDPPKNLQLKPLKNSRQVEVSWEYPDTWSTPHSYFSLTFCVQVQGGGGDRVFTDKTSATVICRKNASISVRAQDRYYSSSWSEWASVPCS
As for B4, in experiment [2], the “CD4 T cell activation assay PSTAT4 EC50 (ug/ml); Donor #1” value came to 0.139 µg/mL and the “CD4 T cell activation assay PSTAT4 EC50 (ug/ml); Donor #2” value worked out at 0.998 µg/mL.

B5: H10/TPP-77658 fusion protein (other)
heavy 1: EVQLVESGGGLVQPGGSLRLSCAASGFSFGDFDMRWFRQAPGKGLEWVGTIKSRAYLEATEFAASVEGRFTISRDDAKNSAYLQMNSLRAEDTAVYYCTRDAYSSGLLDYWGQGTLVTVSSASTKGPSVFPLAPSSKSTSGGTAALGCLVKDYFPEPVTVSWNSGALTSGVHTFPAVLQSSGLYSLSSVVTVPSSSLGTQTYICNVNHKPSNTKVDKKVEPKSCDKTHTCPPCPAPEAAGAPSVFLFPPKPKDTLMISRTPEVTCVVVDVSHEDPEVKFNWYVDGVEVHNAKTKPREEQYNSTYRVVSVLTVLHQDWLNGKEYKCKVSNKALPAPIEKTISKAKGQPREPQVYTLPPCREEMTKNQVSLSCAVKGFYPSDIAVEWESNGQPENNYKTTPPVLDSDGSFFLVSKLTVDKSRWQQGNVFSCSVMHEALHNHYTQKSLSLSPGK
heavy 2: EVQLVESGGGLVQPGGSLRLSCAASGFSFGDFDMRWFRQAPGKGLEWVGTIKSRAYLEATEFAASVEGRFTISRDDAKNSAYLQMNSLRAEDTAVYYCTRDAYSSGLLDYWGQGTLVTVSSASTKGPSVFPLAPSSKSTSGGTAALGCLVKDYFPEPVTVSWNSGALTSGVHTFPAVLQSSGLYSLSSVVTVPSSSLGTQTYICNVNHKPSNTKVDKKVEPKSCDKTHTCPPCPAPEAAGAPSVFLFPPKPKDTLMISRTPEVTCVVVDVSHEDPEVKFNWYVDGVEVHNAKTKPREEQYNSTYRVVSVLTVLHQDWLNGKEYKCKVSNKALPAPIEKTISKAKGQPREPQVCTLPPSREEMTKNQVSLWCLVKGFYPSDIAVEWESNGQPENNYKTTPPVLDSDGSFFLYSKLTVDKSRWQQGNVFSCSVMHEALHNHYTQKSLSLSPGSGGGGSGGGGSGGGGRNLPVATPDPGMFPCLHHSQNLLRAVSNMLQKARQTLEFYPCTSEEIDHEDITKDKTSTVEACLPLELTKNESCLNSRETSFITNGSCLASRKTSFMMALCLSSIYEDLKMYQVEFKTMNAKLLMDPKRQIFLDQNMLAVIDELMQALNFNSETVPQKSSLEEPDFAKTKIKLCILLHAFRIRAVTIDRVMSYLNAS
light: DIQMTQSPSSLSASVGDRVTITCRASQGISNYLAWFQQKPGKAPKRLIYAAQIPGSGVPSRFSGSGSGTDFTLTISSLQPEDFATYYCLQHYSYPLTFGGGTKVEIKRTVAAPSVFIFPPSDEQLKSGTASVVCLLNNFYPREAKVQWKVDNALQSGNSQESVTEQDSKDSTYSLSSTLTLSKADYEKHKVYACEVTHQGLSSPVTKSFNRGEC
chain: IWELKKDVYVVELDWYPDAPGEMVVLTCDTPEEDGITWTLDQSSEVLGSGKTLTIQVKEFGDAGQYTCHKGGEVLSHSLLLLHKKEDGIWSTLILKDQKEPKNKTFLRCEAKNYSGRFTCWWLTTISTDLTFSVKSSRGSSDPQGVTCGAATLSAERVRGDNKEYEYSVECQEDSACPAAEESLPIEVMVDAVHKLKYENYTSSFFIRDIIKPDPPKNLQLKPLKNSRQVEVSWEYPDTWSTPHSYFSLTFCVQVQGGGGDRVFTDKTSATVICRKNASISVRAQDRYYSSSWSEWASVPCS
As to B5, in experiment [2], the “CD4 T cell activation assay PSTAT4 EC50 (ug/ml); Donor #1” value came out at 0.235 µg/mL and the “CD4 T cell activation assay PSTAT4 EC50 (ug/ml); Donor #2” value amounted to 1.54 µg/mL.
